Consider one substance from PMC3644091.

The experiment has as its target IP39, 39-kDa integral membrane protein of Euglena gracilis (Euglena gracilis). Nature of the experiment: cryo-EM structure.

Substance “IP39, 39-kDa integral membrane protein of Euglena gracilis (natural protein)” returned a stoichiometry N of 3.

For orientation: stoichiometry N means a count of units in the complex or per binding partner.
